{"source": "paper PMC3094721", "origin": "cited, not measured here", "target": "ChemR23 (Homo sapiens) (UniProt Q99788)", "sequence (Q99788 whole entry)": "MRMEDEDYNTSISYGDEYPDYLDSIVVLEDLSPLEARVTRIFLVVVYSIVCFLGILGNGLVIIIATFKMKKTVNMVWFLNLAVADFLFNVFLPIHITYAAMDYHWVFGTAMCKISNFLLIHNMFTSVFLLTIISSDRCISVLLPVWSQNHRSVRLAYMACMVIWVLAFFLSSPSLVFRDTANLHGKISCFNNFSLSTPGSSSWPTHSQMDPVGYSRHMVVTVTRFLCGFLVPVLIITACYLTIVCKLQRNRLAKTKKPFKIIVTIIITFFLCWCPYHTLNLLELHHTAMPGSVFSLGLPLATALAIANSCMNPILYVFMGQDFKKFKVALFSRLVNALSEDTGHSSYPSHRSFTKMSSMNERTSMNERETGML", "assay": "radioligand", "data": [{"substance": "chemerin peptide (from UniProt Q99969)", "values": [{"measurement": "Ki", "result": 429, "unit": "nM"}]}]}
